Entries after “also recorded” stand apart in the source; their conditions may differ.

For one assay, the target named is streptavidin (Streptomyces avidinii, UniProt P22629). Conditions: biotin mimicking peptide binding streptavidin; read-out: affinity; cited from earlier work.
The test system of assay [1] is SupT1 cells engineered to express CD33. In words: Activation of TetCAR BW5 T-cells challenged with SupT1 cells expressing CD33. It counts as cell-based. The source says: A bicistronic construct was expressed in BW5 T cells as a single transcript which self-cleaves at the 2A site to yield a signalling component which comprises TiP fused via a flexible linker to the endodomain of CD3-Zeta; and a receptor component which comprises a CD33 recognizing scFv, a spacer derived from the Fc domain of IgG1, a CD4 derived transmembrane and intracellular domain; and TetR (FIG. 19a). A control was also expressed which was identical except that TiP was absent from the signalling component (FIG. 19b).
The BW5 T-cells were challenged with wild-type SupT1 cells or SupT1 cells engineered to express CD33 in the absence of tetracycline or in the presence of increasing concentrations of tetracycline.
Control TetCAR which lacks the TiP domain was also transduced into BW5. Once again, these T-cells were challenged with wild-type SupT1 cells or SupT1 cells engineered to express CD33 in the absence or in the presence of increasing concentration of Tetracycline.

The target of assay [2] is T1, CD22 (Homo sapiens, UniProt P20273). In words: SPR (Biacore T200), scFv-Fc captured on anti-IgG CM5 chip, interaction partner protein injected, 1:1 Langmuir fit. On the technique in general: Surface plasmon resonance follows binding to a sensor surface in real time, without labels.
Assay [3] has as its target T1, CD22. In words: Biacore affinity determination of CD22 binders. The format is binding. Conditions: scFv format, FIG. 6, result in words. Here is the method:
A CD19-binder (CD19ALAb) was identified, humanised and the binding affinities of both murine and humanised IgGs and scFvs were identified and compared with the “gold-standard” anti-CD19 binder, fmc63. In parallel, and a CD22-binder (CD22ALAb) was identified, humanised and the binding affinities of both murine and humanised IgGs and scFvs were identified and compared with the “gold-standard” anti-CD22 binder, M971.
Experiments were performed on a Biacore T200 instrument using HBS-P as running and dilution buffer. BIAevaluation software Version 2.0 was used for data processing. For binding kinetics, mouse anti-human IgG or goat anti-mouse IgG was covalently coupled to a CM5 Sensor Chip. IgG or scFv-Fc proteins were captured, and various concentrations of interaction partner protein injected over the flow cell at a flow rate of 30 μl/min. Kinetic rate constants were obtained by curve fitting according to a 1:1 Langmuir binding model. Bulk refractive index differences were subtracted using a blank control flow cell in which capture antibody had been immobilized to the same level as the active surface. A double reference subtraction was performed using buffer alone.

The next assay concerns the target CD19 (human) (UniProt P15391). The assay is described as follows: SPR (Biacore T200), scFv-Fc captured on anti-IgG CM5 chip, interaction partner protein injected, 1:1 Langmuir fit.

Chain of CD19 (human) (P15391 20-291 limits assumed): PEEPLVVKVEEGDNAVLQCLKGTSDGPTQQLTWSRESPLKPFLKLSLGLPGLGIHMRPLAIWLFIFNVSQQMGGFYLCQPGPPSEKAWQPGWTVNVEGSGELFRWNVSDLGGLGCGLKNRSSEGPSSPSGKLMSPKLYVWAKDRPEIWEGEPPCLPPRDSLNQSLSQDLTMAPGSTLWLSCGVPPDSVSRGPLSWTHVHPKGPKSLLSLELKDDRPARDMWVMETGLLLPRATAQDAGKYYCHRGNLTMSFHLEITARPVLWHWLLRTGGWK
Chain of streptavidin (P22629 37-163 limits assumed): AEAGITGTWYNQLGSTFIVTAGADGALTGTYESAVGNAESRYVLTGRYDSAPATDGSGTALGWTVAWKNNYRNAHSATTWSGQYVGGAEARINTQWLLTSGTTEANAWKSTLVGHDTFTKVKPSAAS

Take “Biotin mimicking peptide DVEAWLGAR (SEQ ID NO: 31) (Biotin mimicking peptide, short nanotag)”: in the assay with streptavidin, the Kd was 0.017 µM.

“Biotin mimicking peptide WRHPQFGG (SEQ ID NO: 32) (Biotin mimicking peptide, streptag)”: the Kd with streptavidin was 72 µM.

In the case of “Biotin mimicking peptide CHPQGPPC (SEQ ID NO: 35) (Biotin mimicking peptide, ccstreptag)”, in the assay with streptavidin, the Kd is 0.23 µM.

Take “Biotin mimicking peptide DVEAWLDERVPLVET (SEQ ID NO: 30) (Biotin mimicking peptide, long nanotag)”: the Kd with streptavidin was 0.0036 µM.

As for `CN(C)[C@@H]1C(O)=C(C(N)=O)C(=O)[C@@]2(O)C(O)=C3C(=O)c4c(O)cccc4[C@@](C)(O)[C@H]3C[C@@H]12` [tetracycline, reference compound], the “concentration of tetracycline at which activation is fully inhibited” value in assay [1] was found to be 100 nM.

B1: Humanised CD22ALAb scFv (scFv, part only; not given: Fc part and VH-VL linker, not shown: another chain or arm of the molecule; a dimerising Fc or GST; small tags and cut ends)
scFv: EVQLVESGAEVKKPGSSVKVSCKASGYTFTNYWINWVRQAPGQGLEWIGNIYPSDSFTNYNQKFKDRATLTVDKSTSTAYLELRNLRSDDTAVYYCTRDTQERSWYFDVWGQGTLVTVSSDIVMTQSPATLSVSPGERATLSCRSSQSLVHSNGNTYLHWYQQKPGQAPRLLIYKVSNRFSGVPARFSGSGSGVEFTLTISSLQSEDFAVYYCSQSTHVPWTFGQGTRLEIK
As to B1, in the assay with CD22 [2], the Kd worked out at 0.032 µM; the off-rate constant (koff) (as a rule, a measure of how fast the partners let go of each other) came out at 0.00226 s⁻¹; the kon (commonly the second-order rate constant of association) is 68300 M⁻¹ s⁻¹.

B2: humanised CD22ALAb: Humanised CD22ALAb scFv, SEQ ID No. 26 (protein)
scFv: EVQLVESGAEVKKPGSSVKVSCKASGYTFTNYWINWVRQAPGQGLEWIGNIYPSDSFTNYNQKFKDRATLTVDKSTSTAYLELRNLRSDDTAVYYCTRDTQERSWYFDVWGQGTLVTVSSDIVMTQSPATLSVSPGERATLSCRSSQSLVHSNGNTYLHWYQQKPGQAPRLLIYKVSNRFSGVPARFSGSGSGVEFTLTISSLQSEDFAVYYCSQSTHVPWTFGQGTRLEIK
modifications: CAR, Humanised CD22ALAb scFv sequence
For the molecule B2, the “binding affinity to CD22” value in the assay with CD22 [3] is recorded as “comparable binding affinity to CD22 to murine CD22ALAb; also recorded: significantly higher binding affinity to CD22 than the gold-standard CD22-binding antibody, M971”.

B3: murine CD22ALAb: Murine CD22ALAb scFv, SEQ ID No. 25 (protein)
scFv: QVQLQQPGAELVRPGASVKLSCKASGYTFTNYWINWVKQRPGQGLEWIGNIYPSDSFTNYNQKFKDKATLTVDKSSSTAYMQLSSPTSEDSAVYYCTRDTQERSWYFDVWGAGTTVTVSSDVVMTQTPLSLPVSLGDQASISCRSSQSLVHSNGNTYLHWYLQKPGQSPKLLIYKVSNRFSGVPDRFSGSGSGTDFTLKISRVEAEDLGLYFCSQSTHVPWTFGGGTKLEIK
modifications: CAR, Murine CD22ALAb scFv sequence
As for B3, the “binding affinity to CD22” value with CD22 [3] was “significantly higher binding affinity to CD22 than the gold-standard CD22-binding antibody, M971”.

B4: Murine CD19ALAb scFv (scFv, part only; not given: Fc part and VH-VL linker, not shown: another chain or arm of the molecule; a dimerising Fc or GST; small tags and cut ends)
scFv: QVQLQQSGAELVRPGSSVKISCKASGYAFSSYWMNWVKQRPGQGLEWIGQIWPGDGDTNYNGKFKGKATLTADESSSTAYMQLSSLASEDSAVYFCARRETTTVGRYYYAMDYWGQGTTVTVSSDIQLTQSPASLAVSLGQRATISCKASQSVDYDGDSYLNWYQQIPGQPPKLLIYDASNLVSGIPPRFSGSGSGTDFTLNIHPVEKVDAATYHCQQSTEDPWTFGGGTKLEIK
As to B4, in the assay with CD19 (human), the Kd came to 0.00185 µM, the off-rate constant (koff) is 0.000328 s⁻¹ and the kon amounted to 178000 M⁻¹ s⁻¹.

Values taken from patent US20190330337A1, “Tunable Chimeric Antigen Receptors” (AUTOLUS LIMITED, priority 2016, published 2019).
